From publication PMC9084902, “Low-Molecular Weight Protamine Overcomes Chondroitin Sulfate Inhibition of Neural Regeneration” (Frontiers in Cell and Developmental Biology, 2022)

B1: heparin-binding growth-associated molecule (protein, UniProt P63090 33-168, looked up)
Pleiotrophin: GKKEKPEKKVKKSDCGEWQWSVCVPTSGDCGLGTREGTRTGAECKQTMKTQRCKIPCNWKKQFGAECKYQFQAWGECDLNTALKTRTGSLKRALHNADCQKTVTISKPCGKLTKPKPQAESKKKKKEGKKQEKMLD
notes: initially isolated by screening for factors from juvenile rat brain that enhance neurite outgrowth in CNS neurons

Tests used:
hippocampal neurons [1] = assay: neurite outgrowth on aggrecan substrate, hippocampal neurons; format: cell-based, Wistar rat; settings: hippocampal neurons (E17 rat), 2 days on aggrecan; 10 μg/ml, precoated with aggrecan or soluble in medium; about 70 neurons/replicate, normalized to control; n = 3; Figure 2L
Description: (§1) The cortex or hippocampus were obtained from 17 days-old Wistar rat embryos and transferred to ice-cold preparation solution. Neurons were further isolated exactly as described earlier in Sahu’s publication ([Sahu et al., 2019]). Primary rat cortical or hippocampal neurons (E17 Wistar rats) were cultured in 96-well plates at the density of 20000 cells/well in Neurobasal medium supplemented with B27 serum substitute, penicillin, streptomycin and L-glutamate for 2 days in vitro (DIV). The plates were precoated with aggrecan (5 ug/ml, 150 µl/well). Protamine or protamine peptides were added to the culture medium at different concentrations. To analyze the effect of protamine or its fragment on neurite outgrowth, the plates were coated with 10 μg/ml of protamine or LMWP. For the experiment with chondroitinase, the aggrecan-coated plates were treated with chondroitinase ABC (Amsbio AMS. E1028, lot CF0029) for 4 h followed by 2 times washing with PBS before cell plating, and the cell culture imaging was carried out after 3 DIV incubation with 4 uM LMWP added to the medium. Neurite outgrowth was imaged with phase contrast microscopy (Olympus IX70 microscope and Retiga 2000R digital camera) using both x10 and x20 objectives. Processes of neurons over the diameter of the neuronal soma were interpreted as neurites. Neurite length was measured with ImageJ software and averaged from 2 to 3 independent experiments with 1–2 technical replicas in each independent experiment.

hippocampal neurons [2] = assay: neurite outgrowth on precoated plastic without aggrecan, hippocampal neurons; format: cell-based, Wistar rat; settings: precoated 10 μg/ml on plastic, no aggrecan, 2 days; about 70 neurons/replicate; p < 0.0001, n = 7
Description: as §1, with “Processes of neurons over the diameter of the neuronal soma were interpreted as neurites.” left out

hippocampal neurons [3] = assay: cell toxicity seen in neuronal morphology / neuronal cells in vitro; format: cell-based, Wistar rat
Description: as §1

brain cortex tissue = assay: in vivo TUNEL apoptosis assay after cortical injection; settings: 1.5 μl cortical injection, 0.1 or 1 mg/ml, 3 days
Description: For TUNEL apoptosis assay, 1.5 μl of protamine (0.1 mg/ml or 1 mg/ml) or LMWP (0.1 mg/ml or 1 mg/ml) was bilaterally injected to the adult C57Bl6 mouse (n = 10 total) into motor (ML: 1.5; AP: 2) and somatosensory (ML: 1.5; AP: −1.8) cerebral cortex 500–700 micrometers below the brain surface (4 injection sites per concentration of injected protamine and 6 injections per concentration of injected LMWP). After 3 days the animals were anesthetized with pentobarbital sodium and perfused with PBS and then 4%PFA. After paraffine embedding the brains were cut into 7 µm coronal sections. Staining was performed according to the protocol recommended by the commercial TUNEL assay kit (Dead End Fluorometric TUNEL System, Promega). Sections treated with DNase I were used as positive controls. Vectoshield medium with DAPI (Vector Laboratories) was used to visualize nuclei. Images were collected with Axio Imager M.1 fluorescent microscope (Zeiss), AxioCam HR3 digital camera and x10 0.45 NA objective (Carl Zeiss Microscopy) and analyzed with automatic cell counting using FIJI software (Image J, open-source). The fractions of TUNEL positive cells were calculated and averaged over 5 sections per mouse per injection place.

[4] = cited from earlier work
From the text: Protamine is a small 33 amino acid long protein that takes part in DNA packing during spermatogenesis ([Kasinsky et al., 2011]). Over 60% of the salmon protamine sequence is comprised of arginines so that it interacts strongly with negatively charged DNA phosphates in vivo and potentially with any other negatively charged molecules. […] Protamine sulfate is therefore widely used as a drug in cardiopulmonary bypass surgery to stop the effect of heparin ([Kaneda et al., 2005]; [Bromfield et al. ... || The CS chains even enhance the neurite outgrowth-promoting effect of HB-GAM, and we have ended up in a model according to which the CS chains of the CSPGs display a positive role by concentrating HB-GAM on the matrix and presenting it to neuron surface receptors. According to our model, two polycationic regions separated by a linker are essential to reverse the CS inhibition of neurite outgrowth ([Paveliev et al., 2016]; [Rauvala et al., 2017]). To test our hypothesis we decided to search for peptide structures that are similar to HB-GAM and display similar binding properties. Protamine displa ...

[5] = attenuated total reflectance Fourier transform infrared spectroscopy; ref Umerska et al., 2015; cited from earlier work
From the text: Chondroitin sulfates (CS) bare multiple negative charges due to sulfate and carboxyl groups while protamine is a polycation at physiological pH values. […] As an FDA-approved drug for human use as anti-heparin, protamine might in addition have potential to overcome the regeneration inhibiting effe ...

[6] = system: oligodendrocyte differentiation; settings: ref Kuboyama et al., 2017; cited from earlier work
From the text: The CS chains even enhance the neurite outgrowth-promoting effect of HB-GAM, and we have ended up in a model according to which the CS chains of the CSPGs display a positive role by concentrating HB-GAM on the matrix and presenting it to neuron surface receptors. According to our model, two polycationic regions separated by a linker are essential to reverse the CS inhibition of neurite outgrowth ([Paveliev et al., 2016]; [Rauvala et al., 2017]). To test our hypothesis we decided to search for peptide structures that are similar to HB-GAM and display similar binding properties. Protamine displa ...

[7] = system: PTPRZ (protein tyrosine phosphatase receptor type Z); settings: ref Kuboyama et al., 2017; cited from earlier work
From the text: (§2) In the case of HB-GAM we have identified glypican-1 as a neuron surface receptor using unbiased mass spectrometry search of neuron binding sites for the substrate-attached HB-GAM ([Paveliev et al., 2016]). […] Interaction of glypican-1 with LMWP also appears likely since LMWP binds to heparin/heparan sulfate chains. Another possible cell surface receptor of LMWP is the transmembrane receptor PTPRZ (protein tyrosine ph ...

glypican-1 = settings: through heparan sulfate chains; ref Paveliev et al., 2016; cited from earlier work
From the text: as §2

CNS neurons = settings: aggrecan and a CSPG mixture isolated from brain; ref Paveliev et al., 2016; cited from earlier work
From the text: (§3) Our candidate protein to overcome the CS inhibition on neurite outgrowth and regeneration has been HB-GAM (heparin-binding growth-associated molecule; pleiotrophin) that was initially isolated by screening for factors from juvenile rat brain that enhance neurite outgrowth in CNS neurons ([Rauvala, 1989]; [Li et al., 1990]; [Merenmies and Rauvala, 1990]). […] Furthermore, we have recently shown t ...

[8] = system: hemisection and hemicontusion spinal cord injury models; settings: mice; ref Kulesskaya et al., 2021; cited from earlier work
From the text: as §3

| Molecule | reversal of the inhibitory effect of aggrecan on neurite outgrowth (comparison among fragments) (hippocampal neurons [1]) | total neurite length versus uncoated control (hippocampal neurons [2]) | signs of cell toxicity in neuronal morphology (hippocampal neurons [3]; hippocampal neurons, 2 days on aggrecan, 10 μg/ml, black arrows point to dead cells, Figure 2E,G) | toxicity for neuronal cells (summary) (hippocampal neurons [3]; neuronal systems, Figures 2, 4) | apoptotic cells in brain cortex (TUNEL staining) (brain cortex tissue) | affinity for heparin ([4]; ref Kaneda et al., 2005, Bromfield et al., 2013) | polyion complexation with CS [5] | effect on CSPG-mediated inhibition of oligodendrocyte differentiation [6] | binding to PTPRZ [7] | binding to heparin ([4]; ref Rauvala, 1989) | binding to glypican-1 (glypican-1) | neurite outgrowth on CSPG substrates (CNS neurons) | functional recovery after spinal cord injury [8] |
| --- | --- | --- | --- | --- | --- | --- | --- | --- | --- | --- | --- | --- | --- |
| protamine | lower efficacy in the neurite outgrowth assay | increased the total neurite length as compared to the parallel control cultures | Signs of cell toxicity were observed in neuronal morphology | toxic for neuronal cells | high amount of apoptotic cells in brain cortex tissue | binds the glycosaminoglycan heparin with high affinity | Polyion complexation of CS with protamine was demonstrated | neutralizes the CSPG-mediated inhibition of oligodendrocyte differentiation | known to bind protamine | – | – | – | – |
| B1 | – | – | – | – | – | – | – | – | – | binds avidly to heparin | binds to HB-GAM through its heparan sulfate chains | overcomes the CS inhibition and enhances neurite outgrowth on CSPG substrates | enhances functional recovery in hemisection and hemicontusion spinal cord injury models in mice |
